According to patent US20010014328A1:

Target: human FcαRI (IgA Fc receptor, CD89) on effector cells (human) (UniProt P24071)
Experiment: cell-based or functional assay

BsAb-dependent lysis of SKBR-3 cells by purified PMN, 1.0 µg/ml BsAb (FIG. 10)	cytolysis of SKBR-3 breast tumor cells by effector cells in whole blood, 0.1 µg/ml BsAb (FIG. 8)	cytolysis of SKBR-3 breast tumor cells by effector cells in whole blood, 1.0 µg/ml BsAb (FIG. 8)	percent effector cells (monocytes or neutrophils) engaged in phagocytosis of SKBR-3 cells (FIG. 18)	phagocytosis of SKBR-3 cells by monocyte-derived macrophages, 0.1 µg/ml BsAb (FIG. 19, panel 5; about 45% without BsAb)	BsAb-dependent lysis of A431 cells by purified monocytes (FIG. 14)	BsAb-dependent lysis of A431 cells with whole blood as source of effector cells (FIG. 15)	cytolysis of tumor cells by TNF-treated monocytes, 1.0 µg/ml BsAb (FIG. 23)	cytolysis of tumor cells by untreated monocytes, 1.0 µg/ml BsAb (FIG. 23)	Substance	cytotoxicity of SKBR-3 cells by neutrophil effector cells (51Cr release), 0.1 µg/ml BsAb (FIG. 7)	cytotoxicity of SKBR-3 cells by neutrophil effector cells (51Cr release), 1.0 µg/ml BsAb (FIG. 7)	cytotoxicity of SKBR-3 cells by neutrophils pre-incubated with G-CSF and IFN-γ, 0.1 µg/ml BsAb (FIG. 22)
< 37%	15 to 20%	25 to 30%	65 to 75%	> 95%					A77X520C9 anti-FcαRXanti-HER2/neu bispecific antibody	6 to 9%	20 to 30%	> 10%
					< 55%	< 43%	> 60%	> 60%	A77XH425 bispecific antibody (anti-FcαRI x anti-EGF-R)			
